Article PMC7886143

Biological target: PfPDI8 (PF3D7_0827900), 3xV5-tagged (P. falciparum (3D7))
Experiment: co-IP

other: 2 fold
Substance: PfBiP, Hsp70 Binding immunoglobulin Protein (natural protein)
